From the supplement of paper PMC9170038

Test system: MS2 coat protein
Assay: apparent KD of MS2 coat protein; designed switch direction (-1 OFF switch, 1 ON switch): -1; higher = weaker reporter binding
How it was run: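 The reported apparent KD is a per-design median over clusters, from curve fits of normalised cluster fluorescence. Protein titrations used SNAP-549-labelled MS2 coat protein, doubled from 0.7 or 1.5 nM to 3 µM, in Tris-HCl pH 7.5 buffer with KCl, MgCl2, BSA, DTT, tRNA and Tween-20, with no input, 200 uM small-molecule ligand, or an oligonucleotide input. The RNA switches were transcribed on Illumina chips by stalled E. coli RNA polymerase.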

[1] = Eterna round: R95, input ligand: FMN 200 uM
[2] = Eterna round: R95, input ligand: microRNA oligo, concentration not stated
[3] = Eterna round: R95, input ligand: none
[4] = input ligand: microRNA oligo, concentration not stated

Sequence | apparent KD of MS2 coat protein [1] [nM] | apparent KD of MS2 coat protein [2] [nM] | apparent KD of MS2 coat protein [3] [nM] | apparent KD of MS2 coat protein (input ligand: FMN 200 uM) [nM] | apparent KD of MS2 coat protein [4] [nM] | apparent KD of MS2 coat protein (input ligand: none) [nM]
AAAAGGUCAGGAUAUACAAGAAAAGAAAAGAAAAGAAAAGAGUAGAAGGGACAUGAGGAUCACCCAUGUAAAAG [Default title] (puzzle: Exclusion 4) | 30.6 | 45.8 | 35.1 |  |  | 
GGAUUCCAGUGAGGAUAUCCAAAUAAAAGCCAUGGAGAAGGCACAUGAGGAUCACCCAUGUAGGGCAAUAGCAGCGACCGCUGC [Usxeer] (Eterna round: R96, puzzle: Exclusion NG 1) |  |  |  | 60.8 | 20.7 | 35.1
UUGAGCAGACGGAGAUCCAACAUGAGGAUCACCCAUGUCUCAAAAGCUUUUUGCUCAUCUUAUCGUACCUUGGUGCU [Mat - Sensor v3 - turn-off var 1 - JL Mod - D15] (puzzle: Sensor v3, turn-off variant 1) | 155 | 9.75 | 302 |  |  | 
CUGAACCCGGUAGGAUAUAUUGUGGGCAGGCGUGGAACGACAUGAGGAUCACCCAUGUAAUUGAGGUAGAAGGGCCGAGAGAUU [Excl-NG2-LRO14] (Eterna round: R96, puzzle: Exclusion NG 2) |  |  |  | 32.8 | 25.9 | 37.1
CUUCACCCACCUGAGCUCACCCACAUACCUGCUCAGGUGACAUGAGGAUCACCCAUGUUUUUUGCCCGUCUUAUCUU [Soteonge] (puzzle: Sensor v3, turn-off variant 2) | 39.4 | 229 | 45.6 |  |  | 
UAUGGUUAAGUCAGGAUAUACAUACAGAAAUCUGAGUAGAAGGGACAUGAGGAUCACCCAUGUAUGGUAGUGUU [Ex4 #55] (Eterna round: R97, puzzle: Brourd's mod of Exclusion 4) |  |  |  | 141 |  | 96.2
CUUGUGUUAGGAUAUGUUAAGCCGCCACCUGGCGGAUCAGGACAGAAGGAACAUGAGGAUCACCCAUGUAAAAG [Inenxele] (Eterna round: R97, puzzle: Exclusion 4) |  |  |  | 55.1 |  | 105
AUGAGGGUAAGAAGGUGAAGAUAGAGCGUACCUUAUGGAACAUGAGGAUCACCCAUGUAGCUUUUUGCUCGUCUUAU [JR_SV3TOV2_Sub032] (puzzle: Sensor v3, turn-off variant 2) | 36.1 | 84 | 35.6 |  |  | 
UACAUGAGGAUCACCCAUGUUUUGUCGUGUAUGGUAUUUAUCUAGGAUAUCAAUUUAUUUAGUUAUGAGAAGGAGAAUAUUAAU [JMF's solution 22] (Eterna round: R96, puzzle: Exclusion NG 3) |  |  |  | 46.8 | 27.7 | 37.9
UCUUGCUGGCGAGGAUAUCCUGUGCGGUUCCGGCUCGUGUCUGUUACAUGAGGAUCACCCAUGUGGGAGAAGGUGUCUGUGGCC [Design 97] (Eterna round: R96, puzzle: Exclusion NG 2) |  |  |  | 18.6 | 16.7 | 21.9
CGCUGGACAGGAUAUGUUCUUGGGCACUUGAGGAUCACCCAAGUCAUCAAGACAACAGGCACAGAAGGGUUUAUGG [salish99_ex5_r4_023] (Eterna round: R97, puzzle: Exclusion 5) |  |  |  | 20.6 |  | 18.4
GACCCUAGGGUCAGACGCACAAGCUUUUUGCUCGUUUUAACAUGAGGAUCACCCAUGUCUAGUGGAUCUGAUCGGGC [Ongege] (puzzle: Sensor v3, turn-off variant 2) | 26.3 | 151 | 29.5 |  |  | 
AACCUGAGGCUUUGCUUUAGGUGUACAUGAGGAUCACCCAUGUAGGAUAUGGUAGGCUUUGCUUACCAGAAGGACAUUAUGAUG [JL ENG3 1.17] (Eterna round: R96, puzzle: Exclusion NG 3) |  |  |  | 75.1 | 44.3 | 52.8
UGUUGUUCAGGAUAUGAUGUAUAAUACAUGAGGAUCACCCAUGUAGAUCCUGAAUUAACAUCAGAAGGGAAUGUUG [salish99_ex5_r4_102] (Eterna round: R97, puzzle: Exclusion 5) |  |  |  | 19.4 |  | 15.2
AUGCCCUGAGGAUAUCUCAUCCCGCACAUGAGGAUCACCCAUGUUCUUCUCUGGGUUUCGAGAGAAGGCAGGCCUA [Armus3] (Eterna round: R97, puzzle: Exclusion 5) |  |  |  | 53.6 |  | 118
GUUAACGUAGGAUAUUAGUACAUGCACAUGAGGAUCACCCAUGUUUAGUGGGUCUAGGAAUAAGAAGGGCGAUGAA [EX5 #22] (Eterna round: R97, puzzle: Exclusion 5) |  |  |  | 472 |  | 567
CUCAUUUGUCAGGAUAUCGUGUGGCUAAUUGUACGAGAAGGGACGACAUGAGGAUCACCCAUGUGGUCUUUGAG [JR_Ex6_Sub083] (Eterna round: R97, puzzle: Exclusion 6) |  |  |  | 196 |  | 54.8

Sequence | apparent KD of MS2 coat protein [1] [nM] | apparent KD of MS2 coat protein [2] [nM] | apparent KD of MS2 coat protein [3] [nM] | apparent KD of MS2 coat protein (input ligand: FMN 200 uM) [nM] | apparent KD of MS2 coat protein [4] [nM] | apparent KD of MS2 coat protein (input ligand: none) [nM]
AGAGAAUACUCAGGAUAUCUUAAUAGAAAGAGUAGAGAAGGGAGACAUGAGGAUCACCCAUGUGAAGUCUUGAGACUACAUGGU [Prohibition 28 - Jieux - Exclusion NG 1] (Eterna round: R96, puzzle: Exclusion NG 1) |  |  |  |  | 305 | 
CUUCGGGCAGGAUAUGCUGUUUGUGACAUGAGGAUCACCCAUGUGAUGCAGUUUGGGUGUGCAGAAGGGCCUGAGU [JR_E5_Sub031] (puzzle: Exclusion 5) |  | 43.7 |  |  |  | 
ACAUGAGGAUCACCCAUGUCUGGCUGGUCCGUCUCGGCUGUCGAGGAUAUAGCUCGGUGUCCGCGCUAGAAGGCGGGAGCUGGU [Aenatbe mod 82] (Eterna round: R96, puzzle: Exclusion NG 3) |  |  |  | 631 | 78 | 143
AGCCACAGAGGAUAUACAUACAUCCAGUAGCAGAUAUUGCUACAUGAGGAUCACCCAUGUAGAAGGCUGUGGCA [Omei Ex2 BD B21] (Eterna round: R97, puzzle: Exclusion 2) |  |  |  | 139 |  | 1040
AUAACGAUAGUCAGGAUAUCGGUGGCAUCCGUCACCGAGAAGGGACAUGAGGAUCACCCAUGUUAAGCCUAUGA [Eternabot (L1) Solution 69] (Eterna round: R97, puzzle: Brourd's mod of Exclusion 4) |  |  |  | 11.5 |  | 19.3
UAUAUAUAGUAAGGAUAUGUAUUUAUUUUAUAAACAGAAGGUACUGACAUGAGGAUCACCCAUGUUUUAGUGUGGGCAUGUAGA [JMF's solution 4] (Eterna round: R96, puzzle: Exclusion NG 1) |  |  |  |  | 67 | 
ACCUCACAUGAGGAUCACCCAUGUCAGGAUAUAUUGUGCAAGCGCCGUGGCGUAUGUAGUAGAAGGGACGAAAC [Eternabot (L1) Solution 77] (Eterna round: R97, puzzle: Exclusion 1) |  |  |  | 18.3 |  | 17.8
UAUUCGCGAGGAUAUGCAUUCGAGUCCAUUACGUGUCUGGGACUUGAGGAUCACCCAAGUAGAAGGCGUCUCAU [salish99_ex2_r4_643] (Eterna round: R97, puzzle: Exclusion 2) |  |  |  | 99.7 |  | 145
AAGAAGAGGUGAGGAUAUCGAAGUACAGGCUGGGACUCGGACUACAUGAGGAUCACCCAUGUAUACGAGAAGGCACUUCGAUAA [Quusatrare] (Eterna round: R96, puzzle: Exclusion NG 2) |  |  |  | 12.6 | 12 | 14.7
GCGGUACAUGAGGAUCACCCAUGUCAGGAUAUCCGCUGUUUGUUGAUAAGCAGGCGGUGGAGAAGGGACUUCGC [-26.7, -26 kcal, 23% A] (Eterna round: R97, puzzle: Exclusion 1) |  |  |  | 39.7 |  | 33.8
AAAUCUCACGUGAGGAUAUCCUGGGCAACGUCCACGGAGAAGGCACAUGAGGAUCACCCAUGUGUUCGCAAUAC [Brourd's mod of Exclusion 4 (MOD2 of Nando's BmEX4 C.1)] (Eterna round: R97, puzzle: Brourd's mod of Exclusion 4) |  |  |  | 22.3 |  | 17.9
GCCCGGCGUGUAGGAUAUGGUUCCGUUUCGGUUCCAGAAGGACAUGAGGAUACAUGAGGAUCACCCAUGUGGUCGUCACCGGGC [salish99_ExNG1_r04_402] (Eterna round: R96, puzzle: Exclusion NG 1) |  |  |  | 37.4 | 26 | 38.7
CGCCUGUGAGGAUAUUAGUAGUAGUCAGAAAAGACUAUUACUGAGAAGGUACAUGAGGAUCACCCAUGUUGGCG [Mat - Exclusion 4 - Eli Mod - D41] (Eterna round: R97, puzzle: Exclusion 4) |  |  |  | 14.8 |  | 20
AUCAGCUCGUGAGGAUAUACAUGAGGAUCACCCAUGUGGUCAUUAGCAGCUUCGGCUGCAUUAAUGUAGAAGGCACGAGCUGAU [ENG2/8-A2] (Eterna round: R96, puzzle: Exclusion NG 2) |  |  |  | 360 | 732 | 829
AAGUACCGUCACGAUAGUGAUGGUACAACAAGCAGUGAUACAUGAGGAUCACCCAUGUCCUCAAUUGCUCGUCUUAU [Sensor 3 - 75] (puzzle: Sensor v3, turn-off variant 2) | 133 | 307 | 157 |  |  | 
CCUUGUGUUGAGGAUAUGCGCCGGCUCGCUGGCGCAGAAGGCGGCACAUGAGGAUCACCCAUGUCAGUUCGCGA [salish99_ex6_r004_012] (Eterna round: R97, puzzle: Exclusion 6) |  |  |  | 336 |  | 29.2
